In assay [1] the target is T1, recombinant human CD38 (SPR of Example 4) (human, UniProt P28907 45-300, limits assumed). As to the kind of experiment: SPR, target binding without other targets present. The method, then:
(§1) Surface regenerate was conducted by injecting 10 mM Glycine-HCl pH 2.5 for 60 sec at 30 μl/min. […] Equilibrium dissociation constant (KD) was calculated using association rate constant (kₒₙ) and dissociation rate constant (koff).
(§2) Next, each antigen binding domain of the CD38SB19×CD28ₛᵤₚ×CD3mid specific binding protein was evaluated by SPR for the ability to bind cognate antigen with and without the other two antigen binding domains in saturation.
For orientation: SPR reads the build-up and loss of mass on a sensor chip optically.

Assay [2] has as its target T2, human CD38 expressed on the cell surface (human, UniProt P28907 1-300).
T2 construct: whole, on cells; also called hCD38-expressing cells; huCD38
As to the kind of experiment: flow cytometry on preB::300.19 cells, apparent KD. The method, then:
(§3) The recombinant cell line was described by J. Deckket et al. 2014 Clin. Cancer Res 20:4574-4583. […] Antibody binding was evaluated after centrifugation and resuspension of cells by adding 200 μl/well PBS 1% BSA and read using Guava® easyCyte™ 8HT Flow Cytometry System. Apparent KD and EC50 values were estimated using BIOST®T-BINDING and BIOST®T-SPEED software, respectively.
On the technique in general: In flow cytometry, cells or beads pass a laser one at a time.

For assay [3], the target named is T2, human CD38 expressed on the cell surface. In words: flow cytometry on 300.19 huCD38 cells (PréB hCD38). The method, then: as §3
Assay [4] has as its target T1, recombinant human CD38 (SPR of Example …). In words: SPR, target binding with the other two targets in saturation. The method, then:
as §1, §2

The target of assay [5] is T3, CD38 isoform A (SEQ ID NO:1) (human, UniProt P28907 45-300).
T3 construct: also called huCD38 isoform A
In words: ELISA, plate coated with the CD38 isoform. The method, then: (§4) 96-well plates were coated with either isoform at 0.5 μg/well in PBS and 100 μL/well of antibodies were added to the plate. The plate was incubated at 37° C. for 1 h and washed five times with PBS containing 0.05% Tween-20 (PBS-T). […] Following incubation at 37° C. for 1 h in darkness, plates were washed with PBS-T five times. Antibody binding w as visualized by adding TMB-H2O2 buffer and read at a wavelength of 450 nm. EC50 values were estimated using BIOST@T-SPEED software.
For orientation: In an ELISA, binding on a coated surface is turned into a signal by an enzyme label.

Assay [6] has as its target T4, CD38 isoform E (SEQ ID NO:105) (human, UniProt P28907 45-195, limits assumed).
T4 construct: also called huCD38 isoform E
In words: ELISA, plate coated with the CD38 isoform. The method, then:
as §4

Assay [7] has as its target T2, human CD38 expressed on the cell surface. As to the kind of experiment: flow cytometry on SU-DHL-8 cells (SUDHL8).
The target is the same in assay [8]. In words: flow cytometry on preB::300.19 cells, apparent KD. The method, then:
(§5) The recombinant cell line was described by J. Deckket et al. 2014 Clin Cancer Res 20:4574-4583. […] Antibody binding was evaluated after centrifugation and resuspension of cells by adding 200 μL/well PBS 1% BSA and read using Guava® easvCyte™ 8HT Flow Cytometry System. Apparent KD and EC50 values were estimated using BIOST@T-BINDING and BIOST@T-SPEED software, respectively.
The source holds these as a separate data set.

Assay [9] concerns the target T5, cynomolgus monkey CD38 expressed on the cell surface (cynomolgus monkey, UniProt Q5VAN0 1-301).
T5 construct: whole, on cells; also called cCD38-expressing cells
In words: flow cytometry on preB::300.19 cells, apparent KD. The method, then: as §5

For assay [10], the target named is T2, human CD38 expressed on the cell surface. As to the kind of experiment: flow cytometry on preB::300.19 cells, apparent KD. The method, then:
as §5
The source holds these as a separate data set.

Assay [11] has as its target T5, cynomolgus monkey CD38 expressed on the …. In words: flow cytometry on preB::300.19 cells, apparent KD. The method, then: as §5
The source holds these as a separate data set.

The target is the same in assay [12]. In words: flow cytometry on PreB cynoCD38-expressing cells.
Assay [13] concerns the target T6, hCD38-his (SEQ ID NO: 2) (human, UniProt P28907 45-300).
T6 construct: His-tagged soluble protein derived from isoform A; also called human CD38-histag; hCD38::Histag
In words: SPR, mAb captured via anti-human Fc, soluble CD38-his injected. The method, then: (§6) The binding properties of the anti-huCD38 mabs were evaluated using a BIAcore 2000 (BIAcore Inc., Uppsala, Ni). […] The surface was regenerated between injections using 30 μL of 50 mM NaOH-1 M NaCl. Individual sensorgrams wore analyzed using BIAsimulation software.

Assay [14] concerns the target T7, cCD38-his (SEQ ID NO: 4) (cynomolgus monkey, UniProt Q5VAN0 46-301).
T7 construct: His-tagged soluble protein; also called cyno CD38-histag; cynoCD38::Histag
The assay is described as above. The method, then: as §6

For assay [15], the target named is T6, hCD38-his (SEQ ID NO: 2). The description is as above. The method, then: as §6
The source holds these as a separate data set.

The target in assay [16] is T7, cCD38-his (SEQ ID NO: 4). Described as above. The method, then: as §6
The source holds these as a separate data set.

Assay [17] has as its target T2, human CD38 expressed on the cell surface. As to the kind of experiment: flow cytometry on MOLP-8 multiple myeloma cells [Cont.].

Values joined by “and” are separate entries in the source; they are usually repeats but may differ in a detail not shown here. Identical values can stand only once. Like-named read-outs stand apart in the source and are kept apart here.

Consider two molecules from patent US20220041746A1 (Sanofi, published 2022).

B1: CD38SB19×CD28sup×CD3mid trispecific binding protein (other)
VH 1: QVQLVQSGAEVAKPGTSVKLSCKASGYTFTDYWMQWVKQRPGQGLEWIGTIYPGDGDTGYAQKFQGKATLTADKSSKTVYMHLSSLASEDSAVYYCARGDYYGSNSLDYWGQGTSVTVSS
VL 1: DIVMTQSHLSMSTSLGDPVSITCKASQDVSTVVAWYQQKPGQSPRRLIYSASYRYIGVPDRFTGSGAGTDFTFTISSVQAEDLAVYYCQQHYSPPYTFGGGTKLEIK
VH 2: QVQLVQSGAEVVKPGASVKVSCKASGYTFTSYYIHWVRQAPGQGLEWIGSIYPGNVNTNYAQKFQGRATLTVDTSISTAYMELSRLRSDDTAVYYCTRSHYGLDWNFDVWGKGTTVTVSS
VL 2: DIQMTQSPSSLSASVGDRVTITCQASQNIYVWLNWYQQKPGKAPKLLIYKASNLHTGVPSRFSGSGSGTDFTLTISSLQPEDIATYYCQQGQTYPYTFGQGTKLEIK
VH 3: QVQLVESGGGVVQPGRSLRLSCAASGFTFTKAWMHWVRQAPGKQLEWVAQIKDKSNSYATYYADSVKGRFTISRDDSKNTLYLQMNSLRAEDTAVYYCRGVYYALSPFDYWGQGTLVTVSS
VL 3: DIVMTQTPLSLSVTPGQPASISCKSSQSLVHNNANTYLSWYLQKPGQSPQSLIYKVSNRFSGVPDRFSGSGSGTDFTLKISRVEAEDVGVYYCGQGTQYPFTFGSGTKVEIK
In general, EC50 refers to the midpoint of the concentration-response curve. With B1, the Kd was determined as 1.75 nM in [1], 4 nM in assay [2] and 2.42 nM in assay [4]. Moreover, the EC50 in assay [3] was 4 nM and 0.603 µg/mL.

B2: mAb1 (antibody, human IgG1, kappa, V domains shown)
VH: QVQLQQSGAELVRSGASVKMSCKASGYTFTSFNMHWVKETPGQGLEWIGYIYPGNGGTNYNQKFKGKATLTADTSSSTAYMQISSLTSEDSAVYFCARTGGLRRAYFTYWGQGTLVTVSS
VL: DIVLTQSPASLAVSLGQRATISCRASESVDSYGNGFMHWYQQKPGQPPKLLIYLASNLESGVPARFSGSGSRTDFTLTIDPVEADDAATYYCQQNKEDPWTFGGGTKLEIKR
notes: also called antiCD38_C2-CD38-1
A word on the koff: it is the first-order rate constant of dissociation. With B2, the EC50 is 0.11 nM in [5]; 0.08 nM in assay [6]; 0.24 nM and 0.0366 µg/mL in assay [7]; 0.033 µg/mL and 0.15 nM in assay [12]; 0.98 nM and 0.148 µg/mL in assay [17]. For the same molecule, the Kd in assay [8] was 0.28 nM; in [9], 0.22 nM; in assay [10] it was 0.28 nM; in assay [11], 0.22 nM; with hCD38-his (SEQ ID NO: 2) [13] it was 0.336 nM; with cCD38-his (SEQ ID NO: 4) [14], 0.39 nM. Moreover, the Kd with hCD38-his (SEQ ID NO: 2) [15] was found to be 0.336 nM; with cCD38-his (SEQ ID NO: 4) [16], 0.39 nM. In addition, the koff in the assay with hCD38-his (SEQ ID NO: 2) [13] amounted to 0.000266 s⁻¹; in the assay with cCD38-his (SEQ ID NO: 4) [14] it was 9.85e-05 s⁻¹; with hCD38-his (SEQ ID NO: 2) [15], 0.000266 s⁻¹; in the assay with cCD38-his (SEQ ID NO: 4) [16], 9.85e-05 s⁻¹.
